Experimental findings from paper PMC9482650, “Quantitative fragmentomics allow affinity mapping of interactomes” (Nature Communications, 2022) are described below.

By pKd is commonly meant the Kd on a negative log10 scale, so that one unit is a factor of ten.

Targets include FRMPD2_2, Q68DX3; FRMPD2_3, Q68DX3; GRASP, Q7Z6J2; GRID2IP_2, A4D2P6; Inadl_6, Q8NI35; LAP2, Q96RT1; LNX1_2, Q8TBB1; MAGI1_2, Q96QZ7; PICK1, Q9NRD5; SNX27, Q96L92.
Assay in all cases: holdup assay
Holding throughout (parameters): key: below the threshold = too weak to quantify, mostly under pKd 3.1 to 4
What all share (conditions): plain residues with an end cap or a label only (N-terminal biotin on a linker: ado-ado)

The next assay concerns the target T1, APBA1_1, Q02410.
T1 sequence (Q02410 651-752, limits assumed, looked up): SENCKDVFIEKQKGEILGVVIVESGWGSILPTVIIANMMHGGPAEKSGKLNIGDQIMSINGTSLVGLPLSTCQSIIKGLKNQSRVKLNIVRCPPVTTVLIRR

For the next assay, the target named is T2, ARHGEF11, O15085.
T2 sequence (O15085 42-136, limits assumed, looked up): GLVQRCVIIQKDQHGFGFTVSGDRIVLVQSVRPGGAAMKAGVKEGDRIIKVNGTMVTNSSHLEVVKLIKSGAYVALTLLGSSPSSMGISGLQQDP

For the next assay, the target named is T3, DLG3_2, Q92796.
T3 sequence (Q92796 221-321, limits assumed, looked up): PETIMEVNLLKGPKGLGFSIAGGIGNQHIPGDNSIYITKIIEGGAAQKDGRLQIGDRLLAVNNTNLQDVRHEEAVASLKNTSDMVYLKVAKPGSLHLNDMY

In a further assay the target is T4, DVL3, Q92997.
T4 sequence (Q92997 244-331, limits assumed, looked up): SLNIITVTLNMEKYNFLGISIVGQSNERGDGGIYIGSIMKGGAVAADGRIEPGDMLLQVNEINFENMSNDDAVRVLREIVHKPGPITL

The target in a further assay is T5, GRIP1_4, Q9Y3R0.
T5 sequence (Q9Y3R0 467-571, limits assumed, looked up): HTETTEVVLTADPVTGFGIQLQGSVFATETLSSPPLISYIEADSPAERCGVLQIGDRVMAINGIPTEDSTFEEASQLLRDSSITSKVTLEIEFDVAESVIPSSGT

The next assay has as its target T6, LIN7B, Q9HAP6.
T6 sequence (Q9HAP6 88-185, limits assumed, looked up): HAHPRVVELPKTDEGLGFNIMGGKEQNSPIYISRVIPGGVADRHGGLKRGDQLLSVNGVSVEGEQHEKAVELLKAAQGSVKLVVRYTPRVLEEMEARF

Another assay addresses T7, LIN7C, Q9NUP9.
T7 sequence (Q9NUP9 88-185, limits assumed, looked up): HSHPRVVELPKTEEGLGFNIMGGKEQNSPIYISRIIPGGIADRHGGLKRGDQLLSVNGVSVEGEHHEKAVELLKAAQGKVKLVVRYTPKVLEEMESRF

Another assay deals with T8, MPDZ_10, O75970.
T8 sequence (O75970 1624-1722, limits assumed, looked up): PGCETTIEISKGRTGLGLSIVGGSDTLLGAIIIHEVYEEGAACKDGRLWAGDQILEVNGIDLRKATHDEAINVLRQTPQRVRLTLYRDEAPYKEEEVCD

The next assay has as its target T9, MPDZ_5, O75970.
T9 sequence (O75970 695-796, limits assumed, looked up): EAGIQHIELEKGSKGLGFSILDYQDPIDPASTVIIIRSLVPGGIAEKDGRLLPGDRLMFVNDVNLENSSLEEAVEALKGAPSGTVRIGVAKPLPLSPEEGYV

The target of the next assay is T10, PDZD2_2, O15018.
T10 sequence (O15018 329-429, limits assumed, looked up): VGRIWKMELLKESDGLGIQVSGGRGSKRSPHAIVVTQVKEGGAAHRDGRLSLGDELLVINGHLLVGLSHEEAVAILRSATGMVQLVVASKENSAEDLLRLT

A further assay has as its target T11, SNTB1, Q13884.
T11 sequence (Q13884 107-205, limits assumed, looked up): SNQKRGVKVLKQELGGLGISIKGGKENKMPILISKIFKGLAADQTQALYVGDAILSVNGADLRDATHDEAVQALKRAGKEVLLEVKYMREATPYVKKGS

A further assay addresses T12, TIAM2, Q8IVF5.
T12 sequence (Q8IVF5 885-986, limits assumed, looked up): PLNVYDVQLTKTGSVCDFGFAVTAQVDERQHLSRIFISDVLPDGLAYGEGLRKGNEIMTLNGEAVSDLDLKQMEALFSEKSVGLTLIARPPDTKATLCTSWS

The target of another assay is T13, TX1BP3, O14907.
T13 sequence (O14907 10-122, limits assumed, looked up): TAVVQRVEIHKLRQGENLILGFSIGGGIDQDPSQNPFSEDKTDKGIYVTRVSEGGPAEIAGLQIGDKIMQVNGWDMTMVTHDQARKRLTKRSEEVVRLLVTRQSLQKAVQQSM

Sequence of Inadl_6, Q8NI35 (Q8NI35 1058-1167): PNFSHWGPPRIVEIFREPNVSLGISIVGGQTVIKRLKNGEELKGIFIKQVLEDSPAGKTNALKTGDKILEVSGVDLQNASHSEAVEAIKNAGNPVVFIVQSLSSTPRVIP
Sequence of GRID2IP_2, A4D2P6 (A4D2P6 272-370): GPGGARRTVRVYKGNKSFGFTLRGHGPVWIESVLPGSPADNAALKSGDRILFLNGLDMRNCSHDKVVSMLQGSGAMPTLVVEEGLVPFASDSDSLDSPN
Sequence of PICK1, Q9NRD5 (Q9NRD5 17-115): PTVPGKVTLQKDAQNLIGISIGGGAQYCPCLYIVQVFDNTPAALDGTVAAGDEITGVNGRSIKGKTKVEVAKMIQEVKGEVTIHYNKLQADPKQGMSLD
Sequence of FRMPD2_3, Q68DX3 (Q68DX3 1073-1166): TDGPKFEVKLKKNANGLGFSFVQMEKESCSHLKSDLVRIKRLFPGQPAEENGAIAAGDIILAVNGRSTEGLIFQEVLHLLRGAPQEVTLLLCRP
Sequence of LAP2, Q96RT1 (Q96RT1 other isoform, or with tags, fused parts or gaps): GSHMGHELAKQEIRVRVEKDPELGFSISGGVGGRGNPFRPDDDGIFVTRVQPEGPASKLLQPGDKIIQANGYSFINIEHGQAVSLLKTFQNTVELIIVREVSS
Sequence of LNX1_2, Q8TBB1 (Q8TBB1 371-470): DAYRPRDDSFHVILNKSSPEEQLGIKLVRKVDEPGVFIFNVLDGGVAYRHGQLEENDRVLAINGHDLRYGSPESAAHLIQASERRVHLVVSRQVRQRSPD
Sequence of MAGI1_2, Q96QZ7 (Q96QZ7 456-580): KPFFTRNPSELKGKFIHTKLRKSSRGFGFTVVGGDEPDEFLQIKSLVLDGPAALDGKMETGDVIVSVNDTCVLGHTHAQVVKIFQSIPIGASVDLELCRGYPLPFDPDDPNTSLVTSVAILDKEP
Sequence of FRMPD2_2, Q68DX3 (Q68DX3 944-1038): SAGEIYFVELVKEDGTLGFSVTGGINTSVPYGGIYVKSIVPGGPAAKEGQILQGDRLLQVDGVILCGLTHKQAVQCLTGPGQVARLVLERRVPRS
Sequence of GRASP, Q7Z6J2 (Q7Z6J2 96-193): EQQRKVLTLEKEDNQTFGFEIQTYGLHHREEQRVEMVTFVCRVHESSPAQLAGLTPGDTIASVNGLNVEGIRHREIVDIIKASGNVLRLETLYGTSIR

B1: CACNA1D, Q01668 (peptide)
chain: ADEMICITTL
B1: the pKd entry with APBA1_1, Q02410 was “below the threshold”; with ARHGEF11, O15085 it was 5.77; in the assay with DLG3_2, Q92796, 4.46; with DVL3, Q92997 it was “below the threshold”; with FRMPD2_2, Q68DX3 it was 3.86; with FRMPD2_3, Q68DX3 it was “below the threshold”. The pKd with GRASP, Q7Z6J2 was 5.41; with GRID2IP_2, A4D2P6, 4.94; with GRIP1_4, Q9Y3R0, “below the threshold”; with Inadl_6, Q8NI35 it was 4.62; with LAP2, Q96RT1, 3.66; with LIN7B, Q9HAP6, 3.95. In addition, the pKd result with LIN7C, Q9NUP9 is “below the threshold”; with LNX1_2, Q8TBB1, “below the threshold”; with MAGI1_2, Q96QZ7, “below the threshold”; with MPDZ_10, O75970, “below the threshold”; with MPDZ_5, O75970, “below the threshold”; with PDZD2_2, O15018 it was 3.95. Further, the pKd turned out to be 4.14 with PICK1, Q9NRD5; 4.84 with SNTB1, Q13884; 5.51 with SNX27, Q96L92; 4.19 with TIAM2, Q8IVF5; 3.87 with TX1BP3, O14907.

B2: NEB, P20929 (peptide)
chain: MLPANYVEAI
As for B2, the pKd entry is “below the threshold” with APBA1_1, Q02410; “below the threshold” in the assay with ARHGEF11, O15085; 4.11 with DLG3_2, Q92796; “below the threshold” with DVL3, Q92997; “below the threshold” in the assay with FRMPD2_2, Q68DX3; “below the threshold” with FRMPD2_3, Q68DX3. The pKd result was “below the threshold” with GRASP, Q7Z6J2; “below the threshold” in the assay with GRID2IP_2, A4D2P6; “below the threshold” with GRIP1_4, Q9Y3R0; “below the threshold” in the assay with Inadl_6, Q8NI35; “below the threshold” with LAP2, Q96RT1; 3.69 with LIN7B, Q9HAP6. Further, the pKd entry is on record as “below the threshold” in the assay with LIN7C, Q9NUP9; “below the threshold” in the assay with LNX1_2, Q8TBB1; “below the threshold” with MAGI1_2, Q96QZ7; “below the threshold” in the assay with MPDZ_10, O75970; “below the threshold” in the assay with MPDZ_5, O75970; “below the threshold” in the assay with PDZD2_2, O15018. In addition, the pKd in the assay with PICK1, Q9NRD5 was 3.94; in the assay with SNTB1, Q13884, “below the threshold”; in the assay with SNX27, Q96L92, “below the threshold”; with TIAM2, Q8IVF5 it was 3.96; with TX1BP3, O14907, “below the threshold”.

B3: SLCO2B1, O94956 (peptide)
chain: PGKKPEDSRV
For B3, the pKd entry with APBA1_1, Q02410 is “below the threshold”; with ARHGEF11, O15085, 3.48; with DLG3_2, Q92796, “below the threshold”; in the assay with DVL3, Q92997, “below the threshold”; with FRMPD2_2, Q68DX3, “below the threshold”; with FRMPD2_3, Q68DX3, “below the threshold”. Also, the pKd entry with GRASP, Q7Z6J2 is “below the threshold”; in the assay with GRID2IP_2, A4D2P6, “below the threshold”; in the assay with GRIP1_4, Q9Y3R0, “below the threshold”; with Inadl_6, Q8NI35, “below the threshold”; with LAP2, Q96RT1 it was 3.52; with LIN7B, Q9HAP6 it was “below the threshold”. In addition, the pKd result in the assay with LIN7C, Q9NUP9 is “below the threshold”; with LNX1_2, Q8TBB1, “below the threshold”; in the assay with MAGI1_2, Q96QZ7 it was “below the threshold”; in the assay with MPDZ_10, O75970, “below the threshold”; with MPDZ_5, O75970 it was “below the threshold”; with PDZD2_2, O15018, 4.45. In addition, the pKd entry was “below the threshold” with PICK1, Q9NRD5; 3.94 with SNTB1, Q13884; 4.43 in the assay with SNX27, Q96L92; “below the threshold” in the assay with TIAM2, Q8IVF5; 3.54 in the assay with TX1BP3, O14907.

B4: HDAC7, Q8WUI4 (peptide)
chain: LVEEEEPMNL
As for B4, the pKd result in the assay with APBA1_1, Q02410 is “below the threshold”; with ARHGEF11, O15085, “below the threshold”; in the assay with DLG3_2, Q92796, “below the threshold”; with DVL3, Q92997, “below the threshold”; with FRMPD2_2, Q68DX3 it was “below the threshold”; with FRMPD2_3, Q68DX3, “below the threshold”. The pKd entry with GRASP, Q7Z6J2 is “below the threshold”; in the assay with GRID2IP_2, A4D2P6, “below the threshold”; with GRIP1_4, Q9Y3R0, “below the threshold”; with Inadl_6, Q8NI35 it was “below the threshold”; in the assay with LAP2, Q96RT1, “below the threshold”; in the assay with LIN7B, Q9HAP6, “below the threshold”. The negative-log Kd (pKd) in the assay with LIN7C, Q9NUP9 was 4.12; with LNX1_2, Q8TBB1, “below the threshold”; with MAGI1_2, Q96QZ7 it was “below the threshold”; with MPDZ_10, O75970, “below the threshold”; with MPDZ_5, O75970, “below the threshold”; with PDZD2_2, O15018, “below the threshold”. For the same molecule, the pKd is 4.11 with PICK1, Q9NRD5; “below the threshold” with SNTB1, Q13884; “below the threshold” with SNX27, Q96L92; “below the threshold” with TIAM2, Q8IVF5; 4.01 with TX1BP3, O14907.

B5: LRRC4, Q9HBW1 (peptide)
chain: TKDKVQETQI
As to B5, the pKd result is “below the threshold” with APBA1_1, Q02410; 3.73 with ARHGEF11, O15085; 4.57 with DLG3_2, Q92796; “below the threshold” with DVL3, Q92997; 3.82 in the assay with FRMPD2_2, Q68DX3; “below the threshold” in the assay with FRMPD2_3, Q68DX3. For the same molecule, the pKd entry is “below the threshold” with GRASP, Q7Z6J2; 4.17 with GRID2IP_2, A4D2P6; “below the threshold” in the assay with GRIP1_4, Q9Y3R0; 3.85 with Inadl_6, Q8NI35; 3.54 in the assay with LAP2, Q96RT1; 3.74 in the assay with LIN7B, Q9HAP6. For the same molecule, the negative-log Kd (pKd) is 3.98 in the assay with LIN7C, Q9NUP9; “below the threshold” with LNX1_2, Q8TBB1; “below the threshold” with MAGI1_2, Q96QZ7; “below the threshold” with MPDZ_10, O75970; “below the threshold” in the assay with MPDZ_5, O75970; 4.23 with PDZD2_2, O15018. In addition, the pKd entry with PICK1, Q9NRD5 was “below the threshold”; in the assay with SNTB1, Q13884, 5.08; with SNX27, Q96L92, 5.5; in the assay with TIAM2, Q8IVF5, “below the threshold”; with TX1BP3, O14907, 4.28.
